Numbering of substitutions follows the chain as printed. One block for each molecule: values may come before it.
Key:
[1] = target: VEGFR2 fusion protein (extracellular domain of hVEGFR2 and intracellular domain of hEpoR) on Ba/F3 cells (human) (UniProt P35968); experiment: cell-based or functional assay
[2] = target: VEGFR2 (Homo sapiens (Human), UniProt P35968 20-764); experiment: SPR (Biacore), 10Fn3 protein or Fc fusion captured by anti-His or anti-human antibody, target in flow, 25 C, 1:1 fit
Experimental: (§1) The binding properties of Fc-¹⁰Fn3 fusion proteins and non-Fc ¹⁰Fn3 proteins were characterized by Surface Plasmon Resonance (SPR). Anti-human or anti-Histidine antibody was immobilized on a Biacore chip, and ¹⁰ Fn3 proteins and Fc-¹⁰Fn3 fusions were captured on the chip surface. Varying concentrations of target were placed into the flow solution using MgCl2 (3 M) for chip regeneration between cycles. Kinetic determinations were performed at 25° C. Evaluation of the kinetic parameters was performed using the 1:1 binding algorithm on the Biacore Evaluation software.

[3] = target: T1, human PCSK9 (human, UniProt Q8NBP7 31-692); experiment: PCSK9:ATI-972 FRET assay, 5 nM human PCSK9; displaced competitor: biotinylated ATI-972
T1 construct: also called hPCSK9; recombinant human PCSK9

[4] = target: T1, human PCSK9; experiment: cell-based or functional assay
[5] = target: T1, human PCSK9; experiment: PCSK9:EGFA FRET competition assay, 5 nM PCSK9; competitor EGFA peptide
Description: (§2) Two fluorescence resonance energy transfer (FRET) based assays were used to determine the competitive binding potency of PRD460 and other adnectins to hPCSK9. The PCSK9:EGFA FRET assay measures the binding of PCSK9 to the LDLR, using a soluble epidermal growth factor precursor homology domain-A (EGFA) peptide and recombinant human PCSK9.

[6] = target: T1, human PCSK9; experiment: SPR (Biacore), 10Fn3 protein or Fc fusion captured by anti-His or anti-human antibody, target in flow, 25 C, 1:1 fit
Experimental: as §1

[7] = target: T1, human PCSK9; experiment: PCSK9:ATI-972 FRET competition assay, 5 nM human PCSK9; competitor biotinylated ATI-972
Description: as §2

[8] = target: T1, human PCSK9; experiment: SPR (Biacore), ATI-1081 captured by anti-His antibody, hPCSK9 in flow, 25 C, 1:1 fit
Experimental: The binding characteristics were characterized by Surface Plasmon Resonance (SPR). […] Varying concentrations of hPCSK9 were placed into the flow solution using MgCl2 (3 M) for chip regeneration between cycles. […] Duplicate experiments for PRD460 were performed on different days. Kinetic determinations were performed at 25° C. Evaluation of the kinetic parameters was performed using the 1:1 Binding algorithm on the Biacore Evaluation software.

B1: C7FL (designed binder)
chain: VSDVPRDLEVVAATPTSLLISWRHPHFPTRYYRITYGETGGNSPVQEFTVPLQPPTATISGLKPGVDYTITVYAVTDGRNGRLLSIPISINYRT
notes: No Fc; anti-VEGFR2 10Fn3; not shown: the N-terminal extension, C-terminal tail and His tag of the non-Fc C7FL protein, none of which is stated for it
Kd [2]: 11.5 nM
koff [2]: 0.000236 s⁻¹
kon [2]: 20500 M⁻¹ s⁻¹

B3: 1784F03 (designed binder, from a related filing)
chain: MGVSDVPRDLEVVAATPTSLLISWRPPIHAYGYYRITYGETGGNSPVQEFTVPIVEGTATISGLKPGVDYTITVYAVEYTFKHSGYYHRPISINYRTEIDKPSQHHHHHH
IC50, HepG2 depletion inhibition [4]: 13.2 nM
Kd [6]: 34.5 nM
koff [6]: 0.000396 s⁻¹
kon [6]: 11500 M⁻¹ s⁻¹

B4: 1813E02 (designed binder, from a related filing)
chain: B3 chain with R25S, I28A, H29N, A30G, I54V, V55G, E56R, F81Y, H83G
IC50, HepG2 depletion inhibition [4]: 10.6 nM
Kd [6]: 22.2 nM
koff [6]: 0.000388 s⁻¹
kon [6]: 17500 M⁻¹ s⁻¹

More lines, now with the values ahead:

IC50 (nM), Ba/F3 proliferation assay [1]: 7.96 nM
Relative Potency, Ba/F3 proliferation assay [1]: 1
Molecule: CT322 (designed binder)

IC50 (read off the curve) [3]: ~0.9 nM
EC50 of inhibition of PCSK9-AF647 intracellular fluorescence in HepG2 cells [4]: 10 nM
EC50 of inhibition of PCSK9-induced LDLR depletion from HepG2 cell surface (FACS) [4]: 8 nM
EC50 [5]: 1.9 nM
B2: ATI-1174 (designed binder)
chain: MGVSDVPRDLEVVAATPTSLLISWVPPSDDYGYYRITYGETGGNSPVQEFTVPIGKGTATISGLKPGVDYTITVYAVEFPWPHAGYYHRPISINYRTEIEKPCQ
modifications: pegylated (site and PEG size not stated)
notes: also called pegylated anti-PCSK9 Adnectin

EC50 [7]: 2.8 nM
EC50 of inhibition of PCSK9-induced LDLR depletion from HepG2 cell surface (FACS) [4]: 9 nM
Kd [8]: 6.7 nM
koff [8]: 0.000245 s⁻¹
kon [8]: 36500 M⁻¹ s⁻¹
EC50 [5]: 3.7 nM
Kd [6]: 6.7 nM
koff [6]: 0.000245 s⁻¹
kon [6]: 36500 M⁻¹ s⁻¹
B5: ATI-1081 (designed binder)
chain: MGVSDVPRDLEVVAATPTSLLISWVPPSDDYGYYRITYGETGGNSPVQEFTVPIGKGTATISGLKPGVDYTITVYAVEFPWPHAGYYHRPISINYRTEIDKPSQHHHHHH
notes: No Fc

EC50 [7]: 0.8 nM
B6: ATI-1114 (designed binder)
chain: MGVSDVPRDLEVVAATPTSLLISWVPPSDDYGYYRITYGETGGNSPVQEFTVPIGKGTATISGLKPGVDYTITVYAVEFPWPHAGYYHRPISINYRTGSGCHHHHHH
modifications: pegylated (site and PEG size not stated)

From patent US20210122805A1 (Bristol-Myers Squibb, published 2021)
